How the values were obtained:
Gal-CBP280-460 chimera [1] = molecular target: T1, Gal-CBP280-460 chimera (yeast, UniProt P04386 1-147; P45481 280-460); assay: mammalian two-hybrid assay in HeLa cells
T1 construct: range 1-147;range 280-460; also called pGal-CBP280-460; Gal-CBPP280-460

Gal-CBP227-460 chimera = Gal-CBP227-460 chimera (yeast, UniProt P04386 1-147; P45481 227-460); assay: cell-based or functional assay
Gal-CBP280-460 chimera [2] = molecular target: T1, Gal-CBP280-460 chimera; assay: cell-based or functional assay

Binder	binding result (Gal-CBP280-460 chimera [1])	ability of the Gal-CBP227-460 chimera to activate transcription of the reporter gene pGal-CAT (Gal-CBP227-460 chimera) [fold]	transcription of the reporter gene pGal-CAT (relative CAT activity) (Gal-CBP280-460 chimera [2]) [fold]
VP16 activation domain (other, range 412-491; Control without the clone 11 part; also called pVP16) MTAPPTDVSLGDELHLDGEDVAMAHADALDDFDLDMLGDGDSPGPGFTPHDSAPYGALDMADFEFEQMFTDALGIDEYGG	no binding	–	–
VP16-clone 11 chimera (other) MTAPPTDVSLGDELHLDGEDVAMAHADALDDFDLDMLGDGDSPGPGFTPHDSAPYGALDMADFEFEQMFTDALGIDEYGGGTSLASASPVPAPTPVLAPSSTQTMLPAPVPSPLPSPASTQTLALAPALAPTLGGSSPSQTLSLGTGNPQGPFPTQTLSLTPASSLVPTPAQTLSLAPGPPLGPTQTLSLAPAPPLAPASPVGPAPAHTLTLAPASSSASLLAPASVQTLTLSPAPVPTLGPAAAQTLALAPASTQSPASQASSLVVSASGAAPLPVTMVSRLPVSKDEPDTLTLRSGPPSPPSTATSFGGPRPRRQPPPPPRSPFYLDSLEEKRKRQRSERLERIFQLSEAHGALAPVYGTEVLDFCTLPQPVASPIGPRSPGPSHPTFWTYTEAAHRA	–	~1.5	~20
